IC50 data for 8 molecules are collected here from paper PMC2932750 (Biochemistry, 2010).

The target of assay [1] is T1, EphA2 ligand-binding domain fused to human Fc (EphA2 Fc) (UniProt P29317 24-537). Briefly: ELISA. For orientation: In an ELISA, binding on a coated surface is turned into a signal by an enzyme label.
The target of assay [2] is T1, EphA2 ligand-binding domain fused to …. Nature of the assay: ELISA. The source holds these as a separate data set.

Where two headings read alike, the source gives them in different places. Where no end group is shown, it is not given here. Where only a bound is given, the exact number is not on record here.

For orientation: IC50 means the concentration at which inhibition is half-maximal. Higher therefore signals lower potency.

T1 sequence (P29317 24-537): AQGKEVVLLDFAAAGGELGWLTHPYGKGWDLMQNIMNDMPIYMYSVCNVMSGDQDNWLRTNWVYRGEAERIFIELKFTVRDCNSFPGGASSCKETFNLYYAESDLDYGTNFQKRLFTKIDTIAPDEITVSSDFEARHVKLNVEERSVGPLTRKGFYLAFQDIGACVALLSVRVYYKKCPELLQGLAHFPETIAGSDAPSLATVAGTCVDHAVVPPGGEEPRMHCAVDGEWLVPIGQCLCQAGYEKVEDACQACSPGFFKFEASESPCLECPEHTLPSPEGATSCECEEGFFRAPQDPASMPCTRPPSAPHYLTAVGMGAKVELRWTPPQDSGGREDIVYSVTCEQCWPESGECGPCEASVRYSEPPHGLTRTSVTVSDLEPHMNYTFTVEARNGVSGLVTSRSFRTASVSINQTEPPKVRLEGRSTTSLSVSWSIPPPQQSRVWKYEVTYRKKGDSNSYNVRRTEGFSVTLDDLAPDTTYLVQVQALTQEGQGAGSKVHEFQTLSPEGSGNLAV

B1: SWLA-10mer (peptide)
chain: SWLAYPDSVP
modifications: C-terminal amide if made in house
In assay [1], B1 yielded an IC50 of 39 µM. This counts as double-digit micromolar.

B2: SWLA-13mer (peptide)
chain: SWLAYPDSVPMMS
modifications: C-terminal amide if made in house
B2: the IC50 in assay [1] worked out at 6.5 µM.

B3: YSS-12mer (peptide)
chain: YSSYPDSVPMMS
modifications: C-terminal amide if made in house
For the molecule B3, the IC50 in assay [1] was > 100 µM.

B4: Ala-4 peptide (YSA-12mer with alanine at position 4) (peptide)
chain: YSAAPDSVPMMS
modifications: C-terminal amide if made in house
With B4, the IC50 in assay [2] is > 100 µM.

B5: YSA-C-10mer (monomeric) (peptide)
chain: YSAYPDSVPC
modifications: free C-terminal cysteine thiol; C-terminal amide if made in house
Molecule B5 yielded an IC50 in assay [1] of 5.2 µM.

B6: YSAF-12mer (peptide)
chain: YSAFPDSVPMMS
modifications: C-terminal amide if made in house
The molecule B6 had an IC50 in assay [1] of 47 µM. Against the preceding molecule, the IC50 is about 9-fold higher.

B7: dimerized YSA-C-10mer (peptide)
chain: YSAYPDSVPC
modifications: also: homodimer, disulfide between C-terminal cysteines of the two chains
In the case of B7, in assay [1], the IC50 amounted to 1.8 µM. This IC50 lies about 26-fold lower than the previous one.

B8: SWLA-C-11mer (peptide)
chain: SWLAYPDSVPC
modifications: free C-terminal cysteine thiol; C-terminal amide if made in house
As for B8, the IC50 in assay [1] worked out at 3.7 µM.
